The results in this text go back to patent publication US20240076412A1 (NATIONAL INSTITUTE OF BIOLOGICAL SCIENCES BEIJING, published 2024).

Experiment [1] deals with T1, extracellular domain of human CD47 (CD47-ECD), residues 1-118, with His6 tag and Avi tag (human, UniProt Q08722 19-136, biotin modification at the C-terminus (Avi tag, BirA) in the form called CD47-Bio).
T1 construct: also called CD47-ECD-His6; CD47-Bio; not shown: His6 tag and Avi tag from the vector
The experiment in a line: CD47 binding ELISA, bio-CD47 captured on neutravidin, full-length IgG1. (In an ELISA, binding on a coated surface is turned into a signal by an enzyme label.)

Experiment [2] deals with extracellular domain of human CD47 (CD47-ECD), residues 1-118, with His6 tag and Avi tag (human) (UniProt Q08722). The experiment in a line: SPR (Biacore), scFv-hFc captured on anti-human IgG Fc CM5 chip, CD47 as analyte, 1:1 Langmuir model. (SPR reads the build-up and loss of mass on a sensor chip optically.)
The target is the same in experiment [3]. The experiment in a line: SPR (Biacore), scFv-hFc captured on anti-human IgG Fc CM5 chip, CD47 as analyte, 1:1 model; column head x 10^6 applied.
Experiment [4] has the same target. The experiment in a line: SPR (Biacore), scFv-hFc captured on anti-human IgG Fc CM5 chip, CD47 as analyte, 1:1 model; column head x 10^-3 applied.
For experiment [5] the target is unchanged. The experiment in a line: competition of the CD47/SIRPα interaction (% inhibition); the format is not stated for this panel, taken as the SIRPα competition ELISA of Example 1 with labelled SIRPα as competitor.
Experiment [6] deals with T1, extracellular domain of human CD47 …. The experiment in a line: SPR (Biacore T200), IgG1 captured on CM5 chip, CD47 as analyte [Con't].
Experimental: SPR was performed on a Biacore T200. 1 μg/mL of anti-CD47 full length IgG1 antibodies were captured onto a CM5 chip for 30 s at 10 μl/min. CD47 in 2-fold serial dilutions (starting at 100 nmol, seven concentrations total) were injected over the antibody-bound surface for 120 s at 30 μl/min followed by a 240 s dissociation phase. After each cycle, the surface was regenerated with magnesium chloride.
The target is the same in experiment [7]. The experiment in a line: CD47 binding ELISA, bio-CD47 captured on neutravidin, full-length IgG1. This is another data set of the same source.
Experimental: CD47 binding ELISA: 2 μg/mL of neutravidin (Sigma) in phosphate buffered saline (PBS) was coated in U-bottom 96-well plate (Nunc, MaxiSorp™), 100 μL per well, at 4° C. overnight or 37° C. for 1 hour. 2 μg/mL of bio-CD47 in PBS containing 2% nonfat milk were then captured onto the plates at 100 μL per well by incubation at 30° C. for 1 hour. […] In between each incubation step, the ELISA plate was washed for 6 times with PBST solution (0.05% Tween20 containing PBS) at 200 μL per well. Followed by HRP-conjugated antibody incubation, the ELISA signal was developed by incubating with TMB substrate (Sigma) for 5-10 mins at 30° C. and then stop the reaction with 2M H₂SO₄ at 50 μL per well. The absorbance at 450 nm was read by a microplate reader (Bio-Rad). For scFv-Fc or IgG1 based ELISA, the method was basically the same as described above for phage-scFvs except the bound antibodies were detected by HRP-conjugated mouse anti-human IgG Fc antibody (Sigma).
In FIG. 3, A. Antibodies in the form of full-length IgG1 were 3-fold serial diluted (starting at 10 nM, 12 concentrations total). B. Antibodies in the form of full-length IgG1 were 3-fold serial diluted (starting at 40 nM, 12 concentrations total).
Experiment [8] addresses hCD47 protein (SPR analyte of Example 2) (human, UniProt Q08722 19-139, limits assumed). The experiment in a line: SPR (Biacore T200), IgG1 captured on protein A/G CM5 chip, human CD47 as analyte.
Experimental: All SPR analyses were performed on a Biacore T200 instrument (Biacore, GE Healthcare). […] The association rates (Kₒₙ), dissociation rates (Koff), and affinity constants (KD) were calculated using BiacoreT200 evaluation software.
In experiment [9] the target is T1, extracellular domain of human CD47 …. The experiment in a line: SIRPα competition ELISA, CD47-ECD-His6 coated, competitor 0.8 nM biotinylated SIRPα-d1-mFc.
Experimental: (§1) The wash, development and read steps are the same as hCD47 binding ELISA. The OD450 values were transformed to Inhibition % in data analysis.
(§2) B. Antibodies in the form of full-length IgG1 were 3-fold serial diluted (starting at 40 nM, 12 concentrations total).
Experiment [10] has the same target. Put plainly: SIRPα competition ELISA, CD47-ECD-His6 coated, competitor 0.5 nM biotinylated SIRPα-d1-mFc.
Experimental: as §1, §2
Experiment [11] concerns the target T2, hGPC3-ΔHS (human, UniProt P51654 25-559, limits assumed).
T2 construct: also called hGPC3-ΔHS protein
The experiment in a line: SPR, antibody captured by anti-human Fc antibodies on CM5 chip, hGPC3 injected first, then hCD47.

The target in experiment [12] is T1, extracellular domain of human CD47 …. Put plainly: SPR (Biacore T200), IgG1 captured on CM5 chip, CD47 as analyte; the column head prints KD (nM), but the cell equals kd/ka in M [Con't].
Experimental: (§3) 1 μg/mL of anti-CD47 full length IgG1 antibodies were captured onto a CM5 chip for 30 s at 10 μl/min. CD47 in 2-fold serial dilutions (starting at 100 nmol, seven concentrations total) were injected over the antibody-bound surface for 120 s at 30 μl/min followed by a 240 s dissociation phase. After each cycle, the surface was regenerated with magnesium chloride.
The target is the same in experiment [13]. Put plainly: SPR (Biacore T200), IgG1 captured on CM5 chip, CD47 as analyte; the column head also prints x 10^6, not applied because kd/ka of the cells gives the KD cell in M [Con't].
Experimental: as §3
Experiment [14] shares this target. Put plainly: SPR (Biacore T200), IgG1 captured on CM5 chip, CD47 as analyte; the column head also prints x 10^-3, not applied because kd/ka of the cells gives the KD cell in M [Con't].
Experimental: as §3
Experiment [15] deals with extracellular domain of human CD47 (CD47-ECD), residues 1-118, with His6 tag and Avi tag (human) (UniProt Q08722). The experiment in a line: phage-scFv ELISA on captured CD47-Bio.
Experiment [16] addresses T1, extracellular domain of human CD47 …. Put plainly: self-competition of unlabelled SIRPα against labelled SIRPα for CD47 (% inhibition); the sheet prints only SIRPα, taken as the unlabelled SIRPα-d1-mFc of the competition ELISA of Example 1.

Positions count from the first letter of the chain named. Read-outs that look alike come from different tables or passages of the source.

B1: B6H12 (antibody)
chain: EVQLVESGGDLVKPGGSLKLSCAASGFTFSGYGMSWVRQTPDKRLEWVATITSGGTYTYYPDSVKGRFTISRDNAKNTLYLQIDSLKSEDTAIYFCARSLAGNAMDYWGQGTSVTVSSGGGGSGGGGSGGGGSDIVMTQSPATLSVTPGDRVSLSCRASQTISDYLHWYQQKSHESPRLLIKFASQSISGIPSRFSGSGSGSDFTLSINSVEPEDVGVYYCQNGHGFPRTFGGGTKLEIK
B1: in [1], the EC50 (read off the curve) (commonly the concentration needed to bring the measured effect to its halfway point) was around 0.02 nM.

B2: BC18 scFv-hFc (Fc fusion, part only; not given: scFv linker, domain order, IgG1 Fc, not shown: another chain or arm of the molecule; a dimerising Fc or GST; small tags and cut ends)
VH: QVQLQQSGPGLVKPSETLSLTCTVSGDSINYHYWSWIRQPPGKGLEWIGYIYYSGSTTYNPSLKSRVTMSVDPSKNHFSLKLTSVTAADTALYFCARQRGAYDYWGQGTQVTVSS
VL: DIQLTQSPSSVSASVGDRVTIACRASQDIGSRLVWYQQRPGKAPKLLIYAASSLQSGVPSRFSGSGSGTDFTLTISSLQPEDFATYYCQQSYSTPYSFGQGTKLEIK
Regarding B2, in [2], the Kd – broadly, the equilibrium constant for the complex coming apart – was 1.43 nM. In addition, in experiment [3], the kon (as a rule, the second-order rate constant of association) was 2.41e+06 M⁻¹ s⁻¹. Also, the off-rate (koff) (in general, a measure of how fast the partners let go of each other) in [4] turned out to be 0.00328 s⁻¹. In experiment [5], this molecule registered an IC50 (read off the curve) of 10 nM.

B3: BC7 scFv-hFc (Fc fusion, part only; not given: scFv linker, domain order, IgG1 Fc, not shown: another chain or arm of the molecule; a dimerising Fc or GST; small tags and cut ends)
VH: B2 VH with Q110L
VL: DIVMTQSPSSVSASVGDRVTITCRASQGIGSRLAWYQQKPGKAPQLLIYAASSLQSGVPSRFSGSGSGTEFTLTISSLQPDDFATYYCQQYNSFSPITFGQGTRLEIK
The molecule B3 showed an equilibrium dissociation constant (Kd) in experiment [2] of 3.27 nM. This molecule displayed a kon in experiment [3] of 1.84e+06 M⁻¹ s⁻¹. The molecule further registered a koff in [4] of 0.006 s⁻¹.

B4: BC18 full-length human IgG1 (antibody, V domains shown)
VH: B2 VH
VL: B2 VL
notes: also called anti-CD47 mAb; parental anti-CD47 mAb
In the case of B4, the dissociation constant (Kd) was 1.62 nM in [6], 1.11 nM in [8] and 2.22 nM in experiment [12]. Besides, the values for the off-rate constant (koff) in experiment [6], in experiment [8] and in experiment [14] were 0.00117 s⁻¹, 0.000753 s⁻¹ and 0.00123 s⁻¹, respectively. Also, the on-rate (kon) in experiment [6] worked out at 721000 M⁻¹ s⁻¹; in [8], 679000 M⁻¹ s⁻¹; in [13], 557000 M⁻¹ s⁻¹. The “EC50 (read off the curve)” value in experiment [1] and in [7] was around 0.01 nM in each case. Besides, the “IC50 (read off the curve)” value in experiment [9] and in experiment [10] was around 3 nM throughout. Besides, the binding result in experiment [11] is “no binding”.

B5: BC18 phage-scFv (scFv, part only; not given: scFv linker, domain order, phage fusion, V domains shown, not shown: another chain or arm of the molecule; large carriers; small tags and cut ends)
VH: B2 VH
VL: B2 VL
Regarding B5, the optical density at 450 nm in experiment [15] is above 0.2 OD450.

B6: BC7 full-length human IgG1 (antibody, V domains shown)
VH: B2 VH with Q110L
VL: B3 VL
In experiment [6], B6 had a Kd of 4.81 nM, a koff of 0.00394 s⁻¹ and a kon of 816000 M⁻¹ s⁻¹. Further, the “EC50 (read off the curve)” value in [1] is around 0.01 nM. In addition, the “IC50 (read off the curve)” value in [9] is around 4 nM.

B7: BC7 phage-scFv (scFv, part only; not given: scFv linker, domain order, phage fusion, V domains shown, not shown: another chain or arm of the molecule; large carriers; small tags and cut ends)
VH: B2 VH with Q110L
VL: B3 VL
In experiment [15], B7 yielded an optical density at 450 nm above 0.2 OD450.

B8: BC18m03 (antibody, IgG1, V domains shown)
VH: B2 VH with Q6E, Q110L
VL: B2 VL
On to B8, for which, in experiment [6], the equilibrium dissociation constant (Kd) came out at 1.6 nM, the dissociation rate constant (koff) was found to be 0.00122 s⁻¹ and the kon is 762000 M⁻¹ s⁻¹.

B9: BC7m04 (antibody, IgG1, V domains shown)
VH: B2 VH with Q110L
VL: B3 VL with G28D, Q45K, E70D, D81E
Turning to B9, in [6], the Kd was determined as 1.55 nM, the koff is 0.00118 s⁻¹ and the kon came out at 763000 M⁻¹ s⁻¹.

B10: BC7m03 (antibody, IgG1, V domains shown)
VH: B2 VH with Q110L
VL: B3 VL with G28D
Regarding B10, in [6], binding was characterised by a dissociation constant (Kd) of 1.46 nM, the koff amounted to 0.00118 s⁻¹ and the kon was found to be 806000 M⁻¹ s⁻¹.

B11: AB6.12 (antibody, V domains shown)
VH: QMQLVQSGAEVKKTGSSVKVSCKASGFNIKDYYLHWVRQAPGQALEWMGWIDPDQGDTEYAQKFQDRVTITRDRSMSTAYMELSSLRSEDTAMYYCNAAYGSSSYPMDYWGQGTTVTVSS
VL: NIQMTQSPSAMSASVGDRVTITCKASQDIHRYLSWFQQKPGKVPKHLIYRANRLVSGVPSRFSGSGSGTEFTLTISSLQPEDFATYYCLQYDEFPYTFGGGTKVEIKR
Take B11: in experiment [7], the “EC50 (read off the curve)” value was around 0.2 nM. Also, in [10], the “IC50 (read off the curve)” value is around 6 nM. In addition, in experiment [12], the Kd was found to be 1.76 nM. In experiment [13], this molecule had a kon of 1.06e+06 M⁻¹ s⁻¹. The same molecule came in with a koff in [14] of 0.00186 s⁻¹.

B12: SIRPα-d1-mFc fusion protein (Fc fusion, human, UniProt P78324 31-148, looked up)
chain: EEELQVIQPDKSVLVAAGETATLRCTATSLIPVGPIQWFRGAGPGRELIYNQKEGHFPRVTTVSDLTKRNNMDFSIRIGNITPADAGTYYCVKFRKGSPDDVEFKSGAGTELSVRAKP
modifications: biotinylated with Sulfo-NHS-SS-Biotin where used as the labelled ligand
notes: range 1-148; also called bio-SIRPα-d1-mFc; biotinylated SIRPα-d1-mFc; not shown: mouse IgG2a Fc fragment
Turning to B12, in [16], the “IC50 (read off the curve)” value is around 4 nM.
